# B1: 5KPH (parent)
# chain: EEKRQVKQVAKEKLLEQSPNSKVQVRRVQKQGNTIRVELELRTNGKKENYTVEVERQGNTWTVKRITRT
# Variants of: B1
# Experiment: folding stability dG (cDNA display proteolysis); higher = more stable
# Settings: PBS, room temperature
row,Variant,folding stability dG [kcal/mol]
1,EEKRQVKQVAKEKLLEQSPNSKVQVRRVQKQGNTIRVELELRTNGKKENYTVEVERQDNTWTVKRITRT [G58D],3.75
2,EEKRQVKQVAKEKLLEQSPNSKVQVRRVQKQGNTIRVELELRTNGKKENYTVEVERYGNTWTVKRITRT [Q57Y],4.03
3,EEKRQVKQVAKEKLLEQSPNSKVQVRRVQKQGNTIRVELELRTNGKKENYTVEVERVGNTWTVKRITRT [Q57V],4.18
4,EEKRQVKQVAKEKLLEQSPNSKVQVRRVQKQGNTIRVELELRTNGKKENYTVEVERWGNTWTVKRITRT [Q57W],3.83
5,EEKRQVKQVAKEKLLEQSPNSKVQVRRVQKQGNTIRVELELRTNGKKENYTVEVERNGNTWTVKRITRT [Q57N],3.9
6,EEKRQVKQVAKEKLLEQSPNSKVQVRRVQKQGNTIRVELELRTNGKKENYTVEVERRGNTWTVKRITRT [Q57R],3.73
7,EEKRQVKQVAKEKLLEQSPNSKVQVRRVQKQGNTIRVELELRTNGKKENYTVEVEREGNTWTVKRITRT [Q57E],4.17
8,EEKRQVKQVAKEKLLEQSPNSKVQVRRVQKQGNTIRVELELRTNGKKENYTVEVERTGNTWTVKRITRT [Q57T],4.03
9,EEKRQVKQVAKEKLLEQSPNSKVQVRRVQKQGNTIRVELELRTNGKKENYTVEVERGGNTWTVKRITRT [Q57G],3.16
10,EEKRQVKQVAKEKLLEQSPNSKVQVRRVQKQGNTIRVELELRTNGKKENYTVEVERKGNTWTVKRITRT [Q57K],3.83
11,EEKRQVKQVAKEKLLEQSPNSKVQVRRVQKQGNTIRVELELRTNGKKENYTVEVERDGNTWTVKRITRT [Q57D],4.07
12,EEKRQVKQVAKEKLLEQSPNSKVQVRRVQKQGNTIRVELELRTNGKKENYTVEVERSGNTWTVKRITRT [Q57S],3.89
13,EEKRQVKQVAKEKLLEQSPNSKVQVRRVQKQGNTIRVELELRTNGKKENYTVEVERAGNTWTVKRITRT [Q57A],3.81
14,EEKRQVKQVAKEKLLEQSPNSKVQVRRVQKQGNTIRVELELRTNGKKENYTVEVERHGNTWTVKRITRT [Q57H],3.82
15,EEKRQVKQVAKEKLLEQSPNSKVQVRRVQKQGNTIRVELELRTNGKKENYTVEVERFGNTWTVKRITRT [Q57F],3.88
16,EEKRQVKQVAKEKLLEQSPNSKVQVRRVQKQGNTIRVELELRTNGKKENYTVEVERIGNTWTVKRITRT [Q57I],4.25
17,EEKRQVKQVAKEKLLEQSPNSKVQVRRVQKQGNTIRVELELRTNGKKENYTVEVERPGNTWTVKRITRT [Q57P],2.19
18,EEKRQVKQVAKEKLLEQSPNSKVQVRRVQKQGNTIRVELELRTNGKKENYTVEVERLGNTWTVKRITRT [Q57L],3.96
19,EEKRQVKQVAKEKLLEQSPNSKVQVRRVQKQGNTIRVELELRTNGKKENYTVEVERMGNTWTVKRITRT [Q57M],3.89
20,EEKRQVKQVAKEKLLEQSPNSKVQVRRVQKQGNTIRVELELRTNGKKENYTVEVERCGNTWTVKRITRT [Q57C],3.53

row,Variant,folding stability dG [kcal/mol]
1,EEKRQVKQVAKEKLLEQSPNSKVQVRRVQKQGNTIRVELELRTNGKKENYTVEVTRQGNTWTVKRITRT [E55T],3.7
2,EEKRQVKQVAKEKLLEQSPNSKVQVRRVQKQGNTIRVELELRTNGKKENYTVEVQRQGNTWTVKRITRT [E55Q],3.7
3,EEKRQVKQVAKEKLLEQSPNSKVQVRRVQKQGNTIRVELELRTNGKKENYTVEVDRQGNTWTVKRITRT [E55D],3.2
4,EEKRQVKQVAKEKLLEQSPNSKVQVRRVQKQGNTIRVELELRTNGKKENYTVEVLRQGNTWTVKRITRT [E55L],3.54
5,EEKRQVKQVAKEKLLEQSPNSKVQVRRVQKQGNTIRVELELRTNGKKENYTVEVRRQGNTWTVKRITRT [E55R],3.1
6,EEKRQVKQVAKEKLLEQSPNSKVQVRRVQKQGNTIRVELELRTNGKKENYTVEVNRQGNTWTVKRITRT [E55N],2.91
7,EEKRQVKQVAKEKLLEQSPNSKVQVRRVQKQGNTIRVELELRTNGKKENYTVEVPRQGNTWTVKRITRT [E55P],-0.38
8,EEKRQVKQVAKEKLLEQSPNSKVQVRRVQKQGNTIRVELELRTNGKKENYTVEVMRQGNTWTVKRITRT [E55M],3.88
9,EEKRQVKQVAKEKLLEQSPNSKVQVRRVQKQGNTIRVELELRTNGKKENYTVEVARQGNTWTVKRITRT [E55A],3.45
10,EEKRQVKQVAKEKLLEQSPNSKVQVRRVQKQGNTIRVELELRTNGKKENYTVEVGRQGNTWTVKRITRT [E55G],3.19
11,EEKRQVKQVAKEKLLEQSPNSKVQVRRVQKQGNTIRVELELRTNGKKENYTVEVWRQGNTWTVKRITRT [E55W],3.92
12,EEKRQVKQVAKEKLLEQSPNSKVQVRRVQKQGNTIRVELELRTNGKKENYTVEVCRQGNTWTVKRITRT [E55C],3.34
13,EEKRQVKQVAKEKLLEQSPNSKVQVRRVQKQGNTIRVELELRTNGKKENYTVEVHRQGNTWTVKRITRT [E55H],3.65
14,EEKRQVKQVAKEKLLEQSPNSKVQVRRVQKQGNTIRVELELRTNGKKENYTVEVKRQGNTWTVKRITRT [E55K],3.19
15,EEKRQVKQVAKEKLLEQSPNSKVQVRRVQKQGNTIRVELELRTNGKKENYTVEVFRQGNTWTVKRITRT [E55F],3.92
16,EEKRQVKQVAKEKLLEQSPNSKVQVRRVQKQGNTIRVELELRTNGKKENYTVEVYRQGNTWTVKRITRT [E55Y],3.92
17,EEKRQVKQVAKEKLLEQSPNSKVQVRRVQKQGNTIRVELELRTNGKKENYTVEVVRQGNTWTVKRITRT [E55V],4.08
18,EEKRQVKQVAKEKLLEQSPNSKVQVRRVQKQGNTIRVELELRTNGKKENYTVEVSRQGNTWTVKRITRT [E55S],3.56
19,EEKRQVKQVAKEKLLEQSPNSKVQVRRVQKQGNTIRVELELRTNGKKENYTVEVIRQGNTWTVKRITRT [E55I],4.11
